Reference: patent publication US20250262210A1 (TRUSTEES OF COLUMBIA UNIVERSITY IN THE CITY OF NEW YORK, published 2025)

Key:
UBE4B = biological target: T1, UBE4B (human, UniProt O95155 1-1302, limits assumed); test: IP/MS, LZTR1 R810W-FLAG, U87
T1 sequence (looked up): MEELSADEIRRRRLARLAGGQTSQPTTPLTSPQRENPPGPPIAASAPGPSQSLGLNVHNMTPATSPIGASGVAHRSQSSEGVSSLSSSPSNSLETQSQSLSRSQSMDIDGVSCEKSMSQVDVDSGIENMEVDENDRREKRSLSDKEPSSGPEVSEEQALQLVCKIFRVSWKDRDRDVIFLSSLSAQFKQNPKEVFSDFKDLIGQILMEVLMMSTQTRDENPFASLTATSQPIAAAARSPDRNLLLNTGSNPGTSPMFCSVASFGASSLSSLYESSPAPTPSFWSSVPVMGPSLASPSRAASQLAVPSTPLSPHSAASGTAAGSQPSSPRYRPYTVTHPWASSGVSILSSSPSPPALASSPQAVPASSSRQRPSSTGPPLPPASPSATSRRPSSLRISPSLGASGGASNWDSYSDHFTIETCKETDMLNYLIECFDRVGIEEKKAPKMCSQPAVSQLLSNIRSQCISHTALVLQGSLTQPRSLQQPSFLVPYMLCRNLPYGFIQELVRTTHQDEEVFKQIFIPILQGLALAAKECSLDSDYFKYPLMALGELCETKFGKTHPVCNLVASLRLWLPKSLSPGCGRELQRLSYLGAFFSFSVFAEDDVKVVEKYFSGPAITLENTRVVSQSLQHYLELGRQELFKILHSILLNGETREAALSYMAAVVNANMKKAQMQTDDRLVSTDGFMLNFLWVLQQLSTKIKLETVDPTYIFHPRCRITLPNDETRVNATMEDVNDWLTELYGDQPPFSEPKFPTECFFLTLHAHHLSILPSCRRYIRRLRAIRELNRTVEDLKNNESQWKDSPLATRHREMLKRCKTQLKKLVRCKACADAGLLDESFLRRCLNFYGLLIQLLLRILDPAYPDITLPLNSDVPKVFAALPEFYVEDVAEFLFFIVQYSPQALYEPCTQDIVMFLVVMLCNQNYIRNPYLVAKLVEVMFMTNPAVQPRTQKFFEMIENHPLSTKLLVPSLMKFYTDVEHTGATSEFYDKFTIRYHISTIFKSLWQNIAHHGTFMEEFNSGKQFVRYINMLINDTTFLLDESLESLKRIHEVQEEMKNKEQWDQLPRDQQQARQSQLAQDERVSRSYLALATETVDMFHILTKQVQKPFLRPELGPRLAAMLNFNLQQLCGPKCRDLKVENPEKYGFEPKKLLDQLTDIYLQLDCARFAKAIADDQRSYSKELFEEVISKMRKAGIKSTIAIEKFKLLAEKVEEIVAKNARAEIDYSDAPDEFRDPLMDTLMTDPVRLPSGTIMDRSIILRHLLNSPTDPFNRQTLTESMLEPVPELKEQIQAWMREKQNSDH
Outline: (§1)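 Gel slices were reduced with 5 mM DTT, alkylated with 11 mM IAA and digested overnight at 37° C. with trypsin. Peptides were analysed on an Orbitrap Fusion Tribrid by LC-MS/MS.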

PAPPA = PAPPA (human, UniProt Q13219 82-1627); test: IP/MS, LZTR1 R810W-FLAG, U87
Outline: as §1

PAPPA, sequence (Q13219 82-1627 limits assumed): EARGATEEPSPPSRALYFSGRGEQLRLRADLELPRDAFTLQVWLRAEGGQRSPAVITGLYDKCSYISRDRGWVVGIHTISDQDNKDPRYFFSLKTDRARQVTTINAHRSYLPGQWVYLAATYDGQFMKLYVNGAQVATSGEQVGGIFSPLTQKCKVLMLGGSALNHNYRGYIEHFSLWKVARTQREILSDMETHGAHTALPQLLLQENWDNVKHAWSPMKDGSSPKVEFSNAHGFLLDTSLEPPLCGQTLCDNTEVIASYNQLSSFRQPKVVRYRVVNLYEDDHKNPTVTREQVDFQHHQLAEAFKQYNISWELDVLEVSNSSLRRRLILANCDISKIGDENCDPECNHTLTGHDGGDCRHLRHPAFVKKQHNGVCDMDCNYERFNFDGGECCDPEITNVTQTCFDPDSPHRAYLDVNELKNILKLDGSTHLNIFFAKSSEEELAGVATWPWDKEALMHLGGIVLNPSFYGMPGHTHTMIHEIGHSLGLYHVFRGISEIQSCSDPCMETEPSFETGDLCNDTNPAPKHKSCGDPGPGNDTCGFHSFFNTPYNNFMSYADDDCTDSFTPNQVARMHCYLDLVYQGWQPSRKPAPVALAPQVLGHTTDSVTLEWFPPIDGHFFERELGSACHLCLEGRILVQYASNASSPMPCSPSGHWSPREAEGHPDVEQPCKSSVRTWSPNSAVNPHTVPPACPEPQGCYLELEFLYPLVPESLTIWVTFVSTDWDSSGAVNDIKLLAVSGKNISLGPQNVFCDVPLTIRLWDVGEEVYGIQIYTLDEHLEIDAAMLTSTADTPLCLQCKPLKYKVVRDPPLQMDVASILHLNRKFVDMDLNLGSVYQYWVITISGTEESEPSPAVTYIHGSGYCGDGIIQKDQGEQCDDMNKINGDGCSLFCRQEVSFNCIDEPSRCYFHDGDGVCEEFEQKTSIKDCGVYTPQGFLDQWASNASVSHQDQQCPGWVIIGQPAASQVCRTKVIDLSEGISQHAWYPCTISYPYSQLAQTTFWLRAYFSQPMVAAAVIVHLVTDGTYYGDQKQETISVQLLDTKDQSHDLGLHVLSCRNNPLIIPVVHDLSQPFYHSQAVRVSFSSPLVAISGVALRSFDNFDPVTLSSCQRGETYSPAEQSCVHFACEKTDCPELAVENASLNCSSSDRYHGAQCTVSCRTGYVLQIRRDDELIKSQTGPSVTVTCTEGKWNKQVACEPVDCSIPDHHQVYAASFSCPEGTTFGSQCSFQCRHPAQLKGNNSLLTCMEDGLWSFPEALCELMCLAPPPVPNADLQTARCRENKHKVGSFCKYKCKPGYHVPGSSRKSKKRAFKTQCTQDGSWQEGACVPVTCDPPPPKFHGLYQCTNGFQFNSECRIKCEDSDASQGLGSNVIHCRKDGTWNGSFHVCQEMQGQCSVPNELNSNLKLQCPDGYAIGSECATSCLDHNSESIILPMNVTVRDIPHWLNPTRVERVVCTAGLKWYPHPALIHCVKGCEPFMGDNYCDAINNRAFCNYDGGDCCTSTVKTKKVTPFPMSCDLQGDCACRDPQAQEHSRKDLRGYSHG

B1: LZTR1 R810W-FLAG (other, human, UniProt Q8N653 1-840, looked up)
chain: MAGPGSTGGQIGAAALAGGARSKVAPSVDFDHSCSDSVEYLTLNFGPFETVHRWRRLPPCDEFVGARRSKHTVVAYKDAIYVFGGDNGKTMLNDLLRFDVKDCSWCRAFTTGTPPAPRYHHSAVVYGSSMFVFGGYTGDIYSNSNLKNKNDLFEYKFATGQWTEWKIEGRLPVARSAHGATVYSDKLWIFAGYDGNARLNDMWTIGLQDRELTCWEEVAQSGEIPPSCCNFPVAVCRDKMFVFSGQSGAKITNNLFQFEFKDKTWTRIPTEHLLRGSPPPPQRRYGHTMVAFDRHLYVFGGAADNTLPNELHCYDVDFQTWEVVQPSSDSEVGGAEVPERACASEEVPTLTYEERVGFKKSRDVFGLDFGTTSAKQPTQPASELPSGRLFHAAAVISDAMYIFGGTVDNNIRSGEMYRFQFSCYPKCTLHEDYGRLWESRQFCDVEFVLGEKEECVQGHVAIVTARSRWLRRKITQARERLAQKLEQEAAPVPREAPGVAAGGARPPLLHVAIREAEARPFEVLMQFLYTDKIKYPRKGHVEDVLLIMDVYKLALSFQLCRLEQLCRQYIEASVDLQNVLVVCESAARLQLSQLKEHCLNFVVKESHFNQVIMMKEFERLSSPLIVEIVRRKQQPPPRTPLDQPVDIGTSLIQDMKAYLEGAGAEFCDITLLLDGHPRPAHKAILAARSSYFEAMFRSFMPEDGQVNISIGEMVPSRQAFESMLRYIYYGEVNMPPEDSLYLFAAPYYYGFYNNRLQAYCKQNLEMNVTVQNVLQILEAADKTQALDMKRHCLHIIVHQFTKVSKLPTLWSLSQQLLLDIIDSLASHISDKQCAELGADI
notes: Stably expressed in U87 cells by lentivirus; also called LZTR1-FLAG-R810W; LZTR1 RW; not shown: FLAG tag
**Q.** Does B1 bind (UBE4B)?
**A.** binds

**Q.** Does B1 bind (PAPPA)?
**A.** binds
